Common to all, as to assay: acetoin formation, Voges-Proskauer test, Michaelis-Menten fit
Common to all, as to conditions: 100 mM phosphate pH 8.0, 0.1 mM TPP, 1 mM Mg2+, 2-600 mM acetaldehyde

In series [1] the target is T1, formolase (FLS) (Pseudomonas fluorescens, UniProt Q9F4L3, A28I/W89R/L90T/R188H/A394G/G419N/A480W).
T1 construct: gene bznB; computationally designed formolase derived from benzaldehyde lyase; pET28a, E. coli BL21(DE3), Ni-NTA His-tag purified
T1 sequence (Q9F4L3 1-563 A28I/W89R/L90T/R188H/A394G/G419N/A480W): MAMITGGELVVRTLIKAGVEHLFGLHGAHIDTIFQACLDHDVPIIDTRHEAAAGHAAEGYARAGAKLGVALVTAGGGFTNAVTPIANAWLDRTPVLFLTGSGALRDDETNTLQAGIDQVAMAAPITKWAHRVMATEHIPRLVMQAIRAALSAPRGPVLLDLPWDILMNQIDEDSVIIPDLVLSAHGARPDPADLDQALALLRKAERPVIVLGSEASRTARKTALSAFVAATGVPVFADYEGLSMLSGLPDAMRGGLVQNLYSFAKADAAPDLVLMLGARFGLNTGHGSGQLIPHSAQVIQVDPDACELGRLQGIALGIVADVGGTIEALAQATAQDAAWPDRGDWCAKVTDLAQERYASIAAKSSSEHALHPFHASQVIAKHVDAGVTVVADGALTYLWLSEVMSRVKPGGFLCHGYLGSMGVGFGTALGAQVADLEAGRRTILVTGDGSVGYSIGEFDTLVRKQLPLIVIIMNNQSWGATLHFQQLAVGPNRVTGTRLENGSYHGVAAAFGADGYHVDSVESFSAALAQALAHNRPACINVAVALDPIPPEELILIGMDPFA
Type of series: biochemical. An excerpt:
(§1) acetoin formation, Voges-Proskauer test, Michaelis-Menten fit on formolase (FLS)

The target of series [2] is T2, formolase (FLS) (Pseudomonas fluorescens, UniProt Q9F4L3, A28I/W89R/L90T/R188H/A394G/G419N/A480W/L482E).
T2 construct: gene bznB; computationally designed formolase derived from benzaldehyde lyase; pET28a, E. coli BL21(DE3), Ni-NTA His-tag purified
T2 sequence (Q9F4L3 1-563 A28I/W89R/L90T/R188H/A394G/G419N/A480W/L482E): T1 sequence (Q9F4L3 1-563 A28I/W89R/L90T/R188H/A394G/G419N/A480W)
Type of series: biochemical.
Excerpt: as §1

The test system of series [3] is T3, CC=O.
T3 construct: computationally designed formolase derived from benzaldehyde lyase; pET28a, E. coli BL21(DE3), Ni-NTA His-tag purified
Type of series: biochemical, Pseudomonas fluorescens.
Excerpt: as §1

We go through 3 compounds from article PMC11357561, “Efficient 2,3-Butanediol Production from Ethanol by a Modified Four-Enzyme Synthetic Biosystem” (Molecules, 2024).

By Km is commonly meant the concentration of substrate that gives half-maximal velocity. One may read the kcat as the maximal rate divided by the concentration of active sites. The kcat/Km is the turnover number divided by the Michaelis constant.

With `CC=O` [acetaldehyde], the Km was found to be 58.5 ± 2.32 mM in series [1] and 50.9 ± 3.22 mM in series [2].

For the compound “formolase (FLS) (Pseudomonas fluorescens; A28I/A394G/A480W/F484A/G419N/L90T/R188H/W89R)”, in series [3], the Km came out at 53.28 ± 2.52 mM, the kcat was 1.74 ± 0.12 s⁻¹ and the kcat/Km was 32.6 M⁻¹ s⁻¹.

Consider “formolase (FLS) (Pseudomonas fluorescens; A28V/A394G/A480W/G419N/L90T/R188H/W89R)”, for which, in series [3], the Km turned out to be 81.95 ± 3.61 mM, the kcat amounted to 3.33 ± 0.21 s⁻¹ and the kcat/Km is 40.6 M⁻¹ s⁻¹.
